Like-named read-outs stand apart in the source and are kept apart here.
T1: recombinant human APRIL (Tonbo Biosciences) (human, UniProt O75888 105-250, limits assumed)
T1 sequence (looked up): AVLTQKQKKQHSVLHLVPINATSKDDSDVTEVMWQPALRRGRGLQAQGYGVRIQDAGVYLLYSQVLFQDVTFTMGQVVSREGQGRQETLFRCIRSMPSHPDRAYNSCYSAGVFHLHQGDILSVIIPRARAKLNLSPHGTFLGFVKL


Legend:
Test in all cases: cell-based or functional assay
[1] = biological target: BAFF 60-mer (an oligomer of twenty BAFF 3-mers)
[2] = biological target: T2, recombinant human BAFF (BioLegend) (human, UniProt Q9Y275 134-285)
[3] = biological target: T1, recombinant human APRIL (Tonbo …)
[4] = biological target: T1, recombinant human APRIL (Tonbo …); remark: listed apart in the source
[5] = biological target: T2, recombinant human BAFF (BioLegend); remark: listed apart in the source
[6] = biological target: T2, recombinant human BAFF (BioLegend); remark: listed apart in the source
[7] = biological target: T2, recombinant human BAFF (BioLegend); remark: listed apart in the source

Row | BAFF 60-mer IC50 (pM) [1] | BAFF IC50 (pM) [2] | APRIL IC50 (pM) [3] | Binder | further results
1 | 14300 pM | 4580 pM |  | TACI WT 131 GS(G4S)2 (194) scFc_218 (SEQ ID NO: 205) (Fc fusion) SRVDQEERFPQGLWTGVAMRSCPEEQYWDPLLGTCMSCKTICNHQSQRTCAAFCRSLSCRKEQGKFYDHLLRDCISCASICGQHPKQCAYFCENKLRSPVNLPPELGSGGGGSGGGGSEPKSSDKTHTCPPCPAPEAEGAPSVFLFPPKPKDTLMISRTPEVTCVVVDVSHEDPEVKFNWYVDGVEVHNAKTKPREEQYNSTYRVVSVLTVLHQDWLNGKEYKCKVSNKALPAPIEKTISKAKGQPREPQVYTLPPSRDELTKNQVSLTCLVKGFYPSDIAVEWESNGQPENNYKTTPPVLDSDGSFFLYSKLTVDKSRWQQGNVFSCSVMHEALHNHYTQKSLSLSPGGGGGSGGGGSGGGGSGGGGSGGGGSGGGGSGGGGSGGGGSGGGGSGGGGSGGGGSGGGGSEPKSSDKTHTCPPCPAPEAEGAPSVFLFPPKPKDTLMISRTPEVTCVVVDVSHEDPEVKFNWYVDGVEVHNAKTKPREEQYNSTYRVVSVLTVLHQDWLNGKEYKCKVSNKALPAPIEKTISKAKGQPREPQVYTLPPSRDELTKNQVSLTCLVKGFYPSDIAVEWESNGQPENNYKTTPPVLDSDGSFFLYSKLTVDKSRWQQGNVFSCSVMHEALHNHYTQKSLSLSPG | 
2 | 2580 pM | 1040 pM | 11900 pM | TACI WT 13 GSG4S (74) Fc 73(G4S)4 (84) (TACI WT 13 (SEQ ID NO: 202) (Fc fusion) SLSCRKEQGKFYDHLLRDCISCASICGQHPKQCAYFCENKLRSGSGGGGSEPKSSDKTHTCPPCPAPEAEGAPSVFLFPPKPKDTLMISRTPEVTCVVVDVSHEDPEVKFNWYVDGVEVHNAKTKPREEQYNSTYRVVSVLTVLHQDWLNGKEYKCKVSNKALPAPIEKTISKAKGQPREPQVYTLPPSRDELTKNQVSLTCLVKGFYPSDIAVEWESNGQPENNYKTTPPVLDSDGSFFLYSKLTVDKSRWQQGNVFSCSVMHEALHNHYTQKSLSLSPGGGGGSGGGGSGGGGSGGGGSSLSCRKEQGKFYDHLLRDCISCASICGQHPKQCAYFCENKLRS | 
3 | 24100 pM | 5700 pM |  | TACI WT 13 GS(G4S)2 (194) sc_Fc 218 (SEQ ID NO: 196) (Fc fusion) SLSCRKEQGKFYDHLLRDCISCASICGQHPKQCAYFCENKLRSGSGGGGSGGGGSEPKSSDKTHTCPPCPAPEAEGAPSVFLFPPKPKDTLMISRTPEVTCVVVDVSHEDPEVKFNWYVDGVEVHNAKTKPREEQYNSTYRVVSVLTVLHQDWLNGKEYKCKVSNKALPAPIEKTISKAKGQPREPQVYTLPPSRDELTKNQVSLTCLVKGFYPSDIAVEWESNGQPENNYKTTPPVLDSDGSFFLYSKLTVDKSRWQQGNVFSCSVMHEALHNHYTQKSLSLSPGGGGGSGGGGSGGGGSGGGGSGGGGSGGGGSGGGGSGGGGSGGGGSGGGGSGGGGSGGGGSEPKSSDKTHTCPPCPAPEAEGAPSVFLFPPKPKDTLMISRTPEVTCVVVDVSHEDPEVKFNWYVDGVEVHNAKTKPREEQYNSTYRVVSVLTVLHQDWLNGKEYKCKVSNKALPAPIEKTISKAKGQPREPQVYTLPPSRDELTKNQVSLTCLVKGFYPSDIAVEWESNGQPENNYKTTPPVLDSDGSFFLYSKLTVDKSRWQQGNVFSCSVMHEALHNHYTQKSLSLSPG | 

Continued, binder first:

Row | Binder | BAFF 60-mer IC50 (pM) [1] | BAFF IC50 (pM) [2] | APRIL IC50 (pM) [3] | further results
4 | TACI WT 1 GS(G4S)2 (194) scFc_218 (SEQ ID NO: 203) (Fc fusion) VAMRSCPEEQYWDPLLGTCMSCKTICNHQSQRTCAAFCRSLSCRKEQGKFYDHLLRDCISCASICGQHPKQCAYFCENKLRSGSGGGGSGGGGSEPKSSDKTHTCPPCPAPEAEGAPSVFLFPPKPKDTLMISRTPEVTCVVVDVSHEDPEVKFNWYVDGVEVHNAKTKPREEQYNSTYRVVSVLTVLHQDWLNGKEYKCKVSNKALPAPIEKTISKAKGQPREPQVYTLPPSRDELTKNQVSLTCLVKGFYPSDIAVEWESNGQPENNYKTTPPVLDSDGSFFLYSKLTVDKSRWQQGNVFSCSVMHEALHNHYTQKSLSLSPGGGGGSGGGGSGGGGSGGGGSGGGGSGGGGSGGGGSGGGGSGGGGSGGGGSGGGGSGGGGSEPKSSDKTHTCPPCPAPEAEGAPSVFLFPPKPKDTLMISRTPEVTCVVVDVSHEDPEVKFNWYVDGVEVHNAKTKPREEQYNSTYRVVSVLTVLHQDWLNGKEYKCKVSNKALPAPIEKTISKAKGQPREPQVYTLPPSRDELTKNQVSLTCLVKGFYPSDIAVEWESNGQPENNYKTTPPVLDSDGSFFLYSKLTVDKSRWQQGNVFSCSVMHEALHNHYTQKSLSLSPG | 15800 pM | 4420 pM |  | 
5 | TACI 26 GSG4S (74) Fc 73 (G4S)4 (84) TACI 26 (SEQ ID NO: 201) (Fc fusion) SLSCRKEQGEYYDHLLRDCISCASICGQHPKQCADFCENKLRSGSGGGGSEPKSSDKTHTCPPCPAPEAEGAPSVFLFPPKPKDTLMISRTPEVTCVVVDVSHEDPEVKFNWYVDGVEVHNAKTKPREEQYNSTYRVVSVLTVLHQDWLNGKEYKCKVSNKALPAPIEKTISKAKGQPREPQVYTLPPSRDELTKNQVSLTCLVKGFYPSDIAVEWESNGQPENNYKTTPPVLDSDGSFFLYSKLTVDKSRWQQGNVFSCSVMHEALHNHYTQKSLSLSPGGGGGSGGGGSGGGGSGGGGSSLSCRKEQGEYYDHLLRDCISCASICGQHPKQCADFCENKLRS | 778 pM | 779 pM | 3760 pM | 
6 | TACI 26 GS(G4S)2 (194) scFc_218 (SEQ ID NO: 199) (Fc fusion) SLSCRKEQGEYYDHLLRDCISCASICGQHPKQCADFCENKLRSGSGGGGSGGGGSEPKSSDKTHTCPPCPAPEAEGAPSVFLFPPKPKDTLMISRTPEVTCVVVDVSHEDPEVKFNWYVDGVEVHNAKTKPREEQYNSTYRVVSVLTVLHQDWLNGKEYKCKVSNKALPAPIEKTISKAKGQPREPQVYTLPPSRDELTKNQVSLTCLVKGFYPSDIAVEWESNGQPENNYKTTPPVLDSDGSFFLYSKLTVDKSRWQQGNVFSCSVMHEALHNHYTQKSLSLSPGGGGGSGGGGSGGGGSGGGGSGGGGSGGGGSGGGGSGGGGSGGGGSGGGGSGGGGSGGGGSEPKSSDKTHTCPPCPAPEAEGAPSVFLFPPKPKDTLMISRTPEVTCVVVDVSHEDPEVKFNWYVDGVEVHNAKTKPREEQYNSTYRVVSVLTVLHQDWLNGKEYKCKVSNKALPAPIEKTISKAKGQPREPQVYTLPPSRDELTKNQVSLTCLVKGFYPSDIAVEWESNGQPENNYKTTPPVLDSDGSFFLYSKLTVDKSRWQQGNVFSCSVMHEALHNHYTQKSLSLSPG | 106000 pM | 8240 pM |  | 
7 | TACI WT 13 (G4S)4 (84) (TACI WT 13 GSG4S (74) Fc 73 (SEQ ID NO: 198) (Fc fusion) SLSCRKEQGKFYDHLLRDCISCASICGQHPKQCAYFCENKLRSGGGGSGGGGSGGGGSGGGGSSLSCRKEQGKFYDHLLRDCISCASICGQHPKQCAYFCENKLRSGSGGGGSEPKSSDKTHTCPPCPAPEAEGAPSVFLFPPKPKDTLMISRTPEVTCVVVDVSHEDPEVKFNWYVDGVEVHNAKTKPREEQYNSTYRVVSVLTVLHQDWLNGKEYKCKVSNKALPAPIEKTISKAKGQPREPQVYTLPPSRDELTKNQVSLTCLVKGFYPSDIAVEWESNGQPENNYKTTPPVLDSDGSFFLYSKLTVDKSRWQQGNVFSCSVMHEALHNHYTQKSLSLSPG | 4330 pM | 3290 pM | 34600 pM | 
8 | belimumab, anti-BAFF monoclonal antibody (antibody, V domains shown) VH: QVQLQQSGAEVKKPGSSVRVSCKASGGTFNNNAINWVRQAPGQGLEWMGGIIPMFGTAKYSQNFQGRVAITADESTGTASMELSSLRSEDTAVYYCARSRDLLLFPHHALSPWGRGTMVTVSS VL: SSELTQDPAVSVALGQTVRVTCQGDSLRSYYASWYQQKPGQAPVLVIYGKNNRPSGIPDRFSGSSSGNTASLTITGAQAEDEADYYCSSRDSSGNHWVFGGGTELTVLG |  |  |  | IC50 (nM) APRIL [4]: 215000 nM; IC50 APRIL (Δ TACI 30-110-Fc) [4]: 55.8 ratio; IC50 (nM) BAFF [5]: 2500 nM; IC50 BAFF (Δ TACI 30-110-Fc) [5]: 0.43 ratio; IC50 (pM) BAFF [6]: 2260 pM; BAFF IC50 (pM) [7]: 2200 pM; BAFF IC50 (Δ WT) [7]: 1.18 ratio
